We go through 1 substance from article PMC11290353.

The target in this assay is RNA Pol II large subunit (CTD) (UniProt P08775). The assay is described as follows: HA IP; blot Pol II S5P, S2P. The following applies: reference: HA-CMTR1 wild type; sites S26,S28,T30,S31,S46,S49,S51,S53,S55,T57,S63,S64,S66,S75,S89.

Turning to “CMTR1 (from UniProt Q8N1G2) HA-CMTR1 15A”, the “binding against the reference” value is reported as “weaker”.
